Data set [1] deals with the molecule itself. Put plainly: SEC; 500 μM WT STIL CCD peptide on Superdex30 analytical column, 25 mM sodium phosphate buffer pH 6.8 (IS = 40 mM). For orientation: Size exclusion chromatography separates by hydrodynamic size, large species first.
Data set [2] concerns the molecule itself. Put plainly: SEC; 35 μM WT STIL CCD peptide on Superdex30 analytical column, 25 mM sodium phosphate buffer pH 6.8 (IS = 40 mM).
Data set [3] deals with the molecule itself. Briefly: SEC; 250 µl of 100 μM peptide on Superdex30 analytical column, 25 mM sodium phosphate buffer pH 6.8 (IS = 40 mM); comparison of elution profiles.

B1: WT STIL CCD peptide (STIL amino acids 718-749) (peptide)
peptide: LSPDAYRFLTEQDRQLRLLQAQIQRLLEAQSL
notes: also called WT CCD; STIL coiled coil peptide; source: synthetic peptide
For B1, the stoichiometry N (as a rule, the number of molecules, sites or subunits per partner or assembly) in data set [1] is 4; in data set [2], approximately 2; in data set [3] it was approximately 4.
Take ESPDAYRFLTEQDRQLRLLQAQIQRLLEAQSL (source: synthetic peptide) [STIL CCD L718E peptide]: in data set [3], the “stoichiometry N” value was approximately 2.
As to LSPDAYRFLTEQDRQLRLEQAQIQRLLEAQSL (source: synthetic peptide) [STIL CCD L736E peptide], the “stoichiometry N” value in data set [3] is approximately 2.
